According to PMC9482650, “Quantitative fragmentomics allow affinity mapping of interactomes” (Nature Communications, 2022):

T1: MPP2, Q14168
T1 sequence (Q14168 180-250, limits assumed, looked up): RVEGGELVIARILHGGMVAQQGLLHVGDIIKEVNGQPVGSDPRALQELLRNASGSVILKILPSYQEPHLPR

T2: LNX2_2, Q8N448
T2 sequence (Q8N448 334-432, limits assumed, looked up): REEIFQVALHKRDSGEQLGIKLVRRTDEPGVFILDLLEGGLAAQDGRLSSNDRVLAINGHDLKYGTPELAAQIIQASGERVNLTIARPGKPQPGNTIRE

T3: PARD3B_1, Q8TEW8
T3 sequence (Q8TEW8 196-299, limits assumed, looked up): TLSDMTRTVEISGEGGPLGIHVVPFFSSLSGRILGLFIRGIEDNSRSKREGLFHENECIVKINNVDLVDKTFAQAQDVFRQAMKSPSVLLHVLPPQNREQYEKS

T4: DFNB31_2, Q9P202
T4 sequence (Q9P202 274-371, limits assumed, looked up): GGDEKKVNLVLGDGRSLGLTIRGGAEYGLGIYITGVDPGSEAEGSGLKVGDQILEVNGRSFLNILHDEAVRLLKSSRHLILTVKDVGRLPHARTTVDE

T5: GRIP1_4, Q9Y3R0
T5 sequence (Q9Y3R0 467-571, limits assumed, looked up): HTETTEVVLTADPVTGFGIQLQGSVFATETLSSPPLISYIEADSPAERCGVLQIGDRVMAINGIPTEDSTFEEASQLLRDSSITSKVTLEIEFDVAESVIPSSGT

T6: CARD11, Q9BXL7
T6 sequence (Q9BXL7 662-765, limits assumed, looked up): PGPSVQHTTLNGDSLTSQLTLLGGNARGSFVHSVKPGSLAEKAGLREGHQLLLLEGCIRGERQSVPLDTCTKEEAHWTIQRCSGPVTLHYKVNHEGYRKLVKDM

T7: PTPN13_1, Q12923
T7 sequence (Q12923 1088-1188, limits assumed, looked up): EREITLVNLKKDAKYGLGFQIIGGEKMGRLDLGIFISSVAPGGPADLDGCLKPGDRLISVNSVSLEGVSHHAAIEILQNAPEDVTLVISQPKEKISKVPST

T8: PDZD7_3, Q9H5P4
T8 sequence (Q9H5P4 857-944, limits assumed, looked up): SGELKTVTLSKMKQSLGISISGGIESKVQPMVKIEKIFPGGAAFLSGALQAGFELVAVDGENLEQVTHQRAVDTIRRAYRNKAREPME

T9: DFNB31_1, Q9P202
T9 sequence (Q9P202 135-233, limits assumed, looked up): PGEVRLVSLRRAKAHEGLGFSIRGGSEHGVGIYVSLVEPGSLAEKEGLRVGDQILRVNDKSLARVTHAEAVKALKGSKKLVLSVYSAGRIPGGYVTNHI

T10: SIPA1L2, Q9P2F8
T10 sequence (Q9P2F8 945-1036, limits assumed, looked up): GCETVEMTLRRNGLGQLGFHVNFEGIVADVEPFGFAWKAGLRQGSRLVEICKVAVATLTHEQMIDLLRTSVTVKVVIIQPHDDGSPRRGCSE

T11: SHANK1, Q9Y566
T11 sequence (Q9Y566 658-767, limits assumed, looked up): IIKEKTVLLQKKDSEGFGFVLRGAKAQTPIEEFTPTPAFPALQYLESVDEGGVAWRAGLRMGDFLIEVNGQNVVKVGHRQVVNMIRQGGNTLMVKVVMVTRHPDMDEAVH

T12: SNTG2, Q9NY99
T12 sequence (Q9NY99 68-166, limits assumed, looked up): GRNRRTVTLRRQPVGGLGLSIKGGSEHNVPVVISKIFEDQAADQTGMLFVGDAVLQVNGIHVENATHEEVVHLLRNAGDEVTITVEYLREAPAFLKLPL


Key:
Experiment in all cases: holdup assay
Design in all cases: key: below the threshold = too weak to quantify, mostly under pKd 3.1 to 4
Settings in all cases: plain residues with an end cap or a label only (N-terminal biotin on a linker: ado-ado)
GIPC2, Q8TF65 = target: GIPC2, Q8TF65
Sequence of GIPC2, Q8TF65 (Q8TF65 112-203): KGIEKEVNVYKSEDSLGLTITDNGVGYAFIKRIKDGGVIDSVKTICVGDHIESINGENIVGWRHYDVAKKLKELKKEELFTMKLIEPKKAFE

MPP2, Q14168 = target: T1, MPP2, Q14168
LDB3, O75112 = target: LDB3, O75112
Sequence of LDB3, O75112 (O75112 1-94): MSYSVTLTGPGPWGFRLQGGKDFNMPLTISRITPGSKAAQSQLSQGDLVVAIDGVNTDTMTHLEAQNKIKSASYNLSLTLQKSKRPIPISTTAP

LNX2_2, Q8N448 = target: T2, LNX2_2, Q8N448
IL16_1, Q14005 = target: IL16_1, Q14005
Sequence of IL16_1, Q14005 (Q14005 210-306): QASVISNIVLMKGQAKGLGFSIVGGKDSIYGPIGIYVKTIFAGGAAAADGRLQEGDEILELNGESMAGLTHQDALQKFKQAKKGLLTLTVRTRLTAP

NHERF4_1, Q86UT5-2 = target: NHERF4_1, Q86UT5-2
Sequence of NHERF4_1, Q86UT5-2 (Q86UT5 other isoform, or with tags, fused parts or gaps): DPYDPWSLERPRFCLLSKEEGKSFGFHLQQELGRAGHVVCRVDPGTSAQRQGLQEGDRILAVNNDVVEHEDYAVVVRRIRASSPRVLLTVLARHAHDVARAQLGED

MAGI1_1, Q96QZ7 = target: MAGI1_1, Q96QZ7
Sequence of MAGI1_1, Q96QZ7 (Q96QZ7 1-106): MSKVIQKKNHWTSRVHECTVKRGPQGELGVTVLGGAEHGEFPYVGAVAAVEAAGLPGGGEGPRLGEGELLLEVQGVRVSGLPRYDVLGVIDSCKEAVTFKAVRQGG

GRID2IP_2, A4D2P6 = target: GRID2IP_2, A4D2P6
Sequence of GRID2IP_2, A4D2P6 (A4D2P6 272-370): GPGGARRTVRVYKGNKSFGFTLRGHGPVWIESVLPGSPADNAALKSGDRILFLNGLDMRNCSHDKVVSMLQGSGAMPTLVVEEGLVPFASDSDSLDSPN

PARD3B_1, Q8TEW8 = target: T3, PARD3B_1, Q8TEW8
LNX1_1, Q8TBB1 = target: LNX1_1, Q8TBB1
Sequence of LNX1_1, Q8TBB1 (Q8TBB1 261-371): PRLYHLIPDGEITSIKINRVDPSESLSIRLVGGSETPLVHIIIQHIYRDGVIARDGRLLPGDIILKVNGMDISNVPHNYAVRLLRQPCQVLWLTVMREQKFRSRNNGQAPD

DFNB31_2, Q9P202 = target: T4, DFNB31_2, Q9P202
GRIP1_4, Q9Y3R0 = target: T5, GRIP1_4, Q9Y3R0
CARD11, Q9BXL7 = target: T6, CARD11, Q9BXL7
PTPN13_1, Q12923 = target: T7, PTPN13_1, Q12923
Inadl_9, Q8NI35 = target: Inadl_9, Q8NI35
Sequence of Inadl_9, Q8NI35 (Q8NI35 1530-1615): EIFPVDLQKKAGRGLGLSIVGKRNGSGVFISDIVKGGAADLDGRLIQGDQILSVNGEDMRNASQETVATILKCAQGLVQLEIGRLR

PDZD7_3, Q9H5P4 = target: T8, PDZD7_3, Q9H5P4
MAGI2_6, Q86UL8 = target: MAGI2_6, Q86UL8
Sequence of MAGI2_6, Q86UL8 (Q86UL8 1141-1229): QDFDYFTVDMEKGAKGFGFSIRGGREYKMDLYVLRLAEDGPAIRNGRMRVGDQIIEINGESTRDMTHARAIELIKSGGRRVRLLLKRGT

GRASP, Q7Z6J2 = target: GRASP, Q7Z6J2
Sequence of GRASP, Q7Z6J2 (Q7Z6J2 96-193): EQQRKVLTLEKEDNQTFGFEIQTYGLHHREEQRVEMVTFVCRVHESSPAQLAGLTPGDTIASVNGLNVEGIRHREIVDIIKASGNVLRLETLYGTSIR

DFNB31_1, Q9P202 = target: T9, DFNB31_1, Q9P202
SCRIB_3, Q14160 = target: SCRIB_3, Q14160
Sequence of SCRIB_3, Q14160 (Q14160 999-1103): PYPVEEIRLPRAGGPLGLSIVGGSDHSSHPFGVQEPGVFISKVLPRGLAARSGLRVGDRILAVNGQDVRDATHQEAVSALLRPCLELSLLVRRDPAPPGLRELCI

NHERF2_2, Q15599 = target: NHERF2_2, Q15599
Sequence of NHERF2_2, Q15599 (Q15599 142-238): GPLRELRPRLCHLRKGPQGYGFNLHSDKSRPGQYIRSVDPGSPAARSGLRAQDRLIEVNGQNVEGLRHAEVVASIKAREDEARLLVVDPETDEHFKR

SIPA1L2, Q9P2F8 = target: T10, SIPA1L2, Q9P2F8
SHANK1, Q9Y566 = target: T11, SHANK1, Q9Y566
SNTG2, Q9NY99 = target: T12, SNTG2, Q9NY99
DLG4_1, P78352 = target: DLG4_1, P78352
Sequence of DLG4_1, P78352 (P78352 62-152): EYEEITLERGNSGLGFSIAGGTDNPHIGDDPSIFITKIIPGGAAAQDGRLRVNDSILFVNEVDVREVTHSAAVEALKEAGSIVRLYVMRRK

| Binder | pKd (GIPC2, Q8TF65) | pKd (MPP2, Q14168) | pKd (LDB3, O75112) | pKd (LNX2_2, Q8N448) | pKd (IL16_1, Q14005) | pKd (NHERF4_1, Q86UT5-2) | pKd (MAGI1_1, Q96QZ7) | pKd (GRID2IP_2, A4D2P6) | pKd (PARD3B_1, Q8TEW8) | pKd (LNX1_1, Q8TBB1) | pKd (DFNB31_2, Q9P202) | pKd (GRIP1_4, Q9Y3R0) | pKd (CARD11, Q9BXL7) | pKd (PTPN13_1, Q12923) | pKd (Inadl_9, Q8NI35) | pKd (PDZD7_3, Q9H5P4) | pKd (MAGI2_6, Q86UL8) | pKd (GRASP, Q7Z6J2) | pKd (DFNB31_1, Q9P202) | pKd (SCRIB_3, Q14160) | also measured |
| --- | --- | --- | --- | --- | --- | --- | --- | --- | --- | --- | --- | --- | --- | --- | --- | --- | --- | --- | --- | --- | --- |
| PSVYSRSQYV [CLDN8, P56748] | below the threshold | below the threshold | below the threshold | 4.66 | below the threshold | 4.03 | below the threshold | 3.56 | 3.58 | below the threshold | below the threshold | below the threshold | below the threshold | below the threshold | 4.36 | below the threshold | below the threshold | 3.51 | below the threshold | below the threshold | pKd (NHERF2_2, Q15599): below the threshold; pKd (SIPA1L2, Q9P2F8): below the threshold; pKd (SHANK1, Q9Y566): below the threshold; pKd (SNTG2, Q9NY99): below the threshold; pKd (DLG4_1, P78352): below the threshold |
| QLGSPTADLA [SIPA1, Q96FS4] | below the threshold | below the threshold | below the threshold | below the threshold | below the threshold | below the threshold | below the threshold | below the threshold | below the threshold | below the threshold | below the threshold | below the threshold | below the threshold | below the threshold | below the threshold | below the threshold | below the threshold | below the threshold | below the threshold | below the threshold | pKd (NHERF2_2, Q15599): below the threshold; pKd (SIPA1L2, Q9P2F8): below the threshold; pKd (SHANK1, Q9Y566): below the threshold; pKd (SNTG2, Q9NY99): below the threshold; pKd (DLG4_1, P78352): below the threshold |
